From patent publication US20050171004A1, “Use of cardiotrophin-1 to promote wound healing and counteract overt fibrosis” (priority 2003, published 2005)

What was measured:
cardiac fibroblasts [1] = experiment: Western analysis of myosin light chain phosphorylation; format: cell-based, rat; conditions: CT-1 10 ng/mL
Experimental: (§1) Protein concentrations of tissue and cell lysates were determined by the BCA method (Smith et al., 1985, Anal Biochem 150: 76-85). Proteins were separated by 8-12% SDS-PAGE and transferred to PVDF membrane (Roche, Indianapolis, Ind.) for 1 hour at 300 mA for small proteins or for 2 hours at 500 mA for proteins greater than 100 kDa. Membranes were blocked with 5% non-fat skim milk in tris-buffered saline containing 0.2% Tween 20 (TBST). Proteins were visualized with ECL Plus (Amersham) after probing with primary and secondary antibodies. Band intensity was quantified using a CCD camera imaging densitometer (GS670, Bio-Rad Laboratories (Canada) Ltd. Mississauga, Ontario).
The infarct zone is repopulated by interstitial fibroblasts that infiltrate the scar after MI. […] Similar results were obtained when using the Costar Transwell® system (data not shown). To determine how the chemotactic response is transduced, we used specific inhibitors of intracellular signaling pathways. […] This effect could be blunted by co-incubation with AG490 (FIG. 22). […] Since activation of myosin motors is required for effective cell migration, and CT-1 induced migration could be inhibited by co-incubation with a myosin light chain kinase inhibitor, we sought to determine the effect of CT-1 on the phosphorylation status of myosin light chain. Myosin light chain regulates the ATPase activity of myosin heavy chain, and thus overall contractile activity. […] Myosin light chain phosphorylation could be prevented by co-incubation with ML-7 or W7 but not AG490 or PP2 (FIG. 25b).

cardiac fibroblasts [2] = experiment: Nuclear accumulation of PCNA; format: cell-based, rat; conditions: CT-1 for 24 hours
Experimental: Cardiac fibroblasts were seeded onto cover slips and allowed to attach overnight. The cells were incubated with serum free media for 24 hours prior to stimulation with CT-1 for an additional 24 hours. The cells were then fixed with cold acetone, permeabilized and immunostained for PCNA and counter stained with Hoechst 33342. Images from 5 high power fields per slide were captured and cells were counted. Nuclei that were positive for PCNA were counted and expressed as a ratio to total nuclei.

cardiac fibroblasts [3] = experiment: Wounded monolayer model, cortactin immunostaining; format: cell-based, rat; conditions: 4 hours after creation of the wound
Experimental: Cardiac fibroblasts were seeded onto coverslips in 6-well dishes and allowed to proliferate. Once the cells were near confluency, they were serum deprived for 24 hours. A scrape was made down the middle of the coverslip with the blunt end of a 1 ml syringe and the media was changed again. Cells were further incubated in the presence or absence of CT-1 and inhibitors at specified concentrations for specified times. The cells were then subjected to immunofluorescence staining as described herein.

cardiac fibroblasts [4] = experiment: Immunofluorescence of STAT3 nuclear accumulation; format: cell-based, rat; conditions: CT-1 for 5 minutes
Experimental: Cardiac fibroblasts were seeded onto coverslips in 6 well dishes and allowed to attach overnight in media containing 10% serum. The cells were rendered quiescent in serum free media for 24 hours before being stimulated with CT-1 for specified times. The media was removed, cells were rinsed with PBS and fixed with 4% paraformaldehyde. Cells were permeabilized with 0.1% Triton X-100 and incubated with primary antibodies, biotinylated secondary antibodies, and streptavidin FITC. Nuclei were stained with Hoechst 33342. The cells were visualized with epifluorescent microscopy with appropriate filters (Nikon Canada).

rat cardiac fibroblasts = experiment: Boyden chamber migration assay; format: cell-based
Experimental: Migration of rat cardiac fibroblasts was measured using Boyden chamber (Neuro Probe Inc. Gaithersburg, Md.) assay (Richards and McCullough, 1984, Immunol Commun 13: 49-62). Chemoattractants were diluted in DMEM/F12 and loaded into the lower wells at specified concentrations. The polycarbonate membrane (5 μm pore) was placed over the wells, and 55 μL cell suspension in DMEM/F12 supplemented with 100 μM ascorbate was loaded into each well (1000 cells/mm^2). The chamber was incubated overnight in 5% CO2 and 100% humidity at 37° C. Cells that had migrated through the membrane and become adherent to the lower surface were fixed with methanol and stained with Diff-Quick stain (Dade Behring AG, Düdingen, Switzerland). Cell migration was determined by counting the number of cells per high power field.

cardiac fibroblasts [5] = experiment: Western analysis of cell cycle regulatory proteins (cyclins, Rb); format: cell-based, rat
Experimental: as §1
Cardiac fibroblasts were isolated from the ventricles of rats and incubated with CT-1 for specified times and at specified concentrations. […] Addition of CT-1 results in S-phase re-entry within 6 hours of stimulation (FIG. 7). […] (FIG. 8). […] To determine the effect of CT-1 on cell cycle regulatory proteins, we incubated cardiac fibroblasts with CT-1 and lysed them at specified times. […] To determine if increased DNA synthesis was accompanied by an increase in cell number, we repeated the experiments in the absence of ^3H-thymidine, detached the cells from the plates and counted the total number of cells.

[6] = tested on: porcine coronary artery vascular smooth muscle cells; experiment: Chemotaxis of vascular smooth muscle cells (data not shown); format: cell-based
cardiac fibroblasts [7] = experiment: Western analysis of phosphorylation of translational regulatory proteins; format: cell-based, rat; conditions: stimulation with CT-1
Experimental: as §1
To determine the effect of CT-1 on protein synthesis in cardiac fibroblasts we measured incorporation of ^3H-labeled leucine. […] Since the activity of translational regulatory proteins is modified by phosphorylation, we used phospho-specific antibodies to determine if CT-1 directly influenced the activity of these regulatory proteins.
We then determined the effect of pharmacologic inhibitors on the activation of this signaling cascade.

cardiac fibroblasts [8] = experiment: Collagen synthesis (P1CP radioimmunoassay of conditioned media); format: cell-based, rat; conditions: CT-1 for 24 hours
Experimental: Synthesis of mature type I collagen was determined by measuring the concentration of the carboxyterminal propeptide of type I collagen (P1CP) in conditioned media from CT-1 treated or untreated cardiac fibroblasts. 5×10^4 cells were loaded into each well of a 6 well plate, allowed to attach overnight, and serum starved for 24 hours. Cells were treated with CT-1 at specified concentrations for an additional 24 or 48 hours. P1CP content in 0.1 mL conditioned media was determined by radioimmunoassay according to the manufacturer's specification (Diasorin Inc, Stillwater, Minn.). Radioactivity was quantified with a gamma counter (Gamma 5500, Beckman Coulter, Fullerton, Calif.) and the concentration of P1CP was determined by the % B/B0 versus log concentration.

B1: cardiotrophin-1 (protein, UniProt Q16619 1-201, looked up)
Cardiotrophin-1: MSRREGSLEDPQTDSSVSLLPHLEAKIRQTHSLAHLLTKYAEQLLQEYVQLQGDPFGLPSFSPPRLPVAGLSAPAPSHAGLPVHERLRLDAAALAALPPLLDAVCRRQAELNPRAPRLLRRLEDAARQARALGAAVEALLAALGAANRGPRAEPPAATASAASATGVFPAKVLGLRVCGLYREWLSRTEGDLGQLLPGGSA
notes: gp130 signaling cytokine of the LIF or IL-6 superfamily; 201 amino acids as a mature protein, 21.5 kDa
phosphorylation of myosin light chain at threonine 18/serine 19 (cardiac fibroblasts [1]): induced phosphorylation | nuclear expression of PCNA (cardiac fibroblasts [2]): increased nuclear expression of PCNA | localization of cortactin (cardiac fibroblasts [3]): at the leading edge of lamellipodia | nuclear accumulation of STAT3 (cardiac fibroblasts [4]): nuclear accumulation of STAT3 | cardiac fibroblast migration (rat cardiac fibroblasts; CT-1 gradient, overnight): induced cardiac fibroblast migration in a dose dependent manner | dependence of CT-1 induced migration (rat cardiac fibroblasts; ion channel and myosin light chain kinase function): dependent on functioning potassium channels and myosin light chain kinase | dependence of CT-1 chemotaxis (rat cardiac fibroblasts; specific inhibitors of signaling pathways, integrin inhibitors): dependent on intracellular signaling pathways | phosphorylation of the retinoblastoma protein (cardiac fibroblasts [5]; Rb pS795, pS807/811): hyperphosphorylation | expression of cyclins (cardiac fibroblasts [5]; cyclins A, E, CT-1 for specified times): increase in expression of cyclins | chemotactic effect [6]: does appear to have a chemotatic effect | phosphorylation of Akt T308/S473, p70 S6 kinase T389 and S421/T424, Mnk1, eIF4E, 4E-BP1 and S6 ribosomal protein (cardiac fibroblasts [7]): induced an increase in phosphorylation | P1CP expression normalized to the number of cells at the end of the experiment (cardiac fibroblasts [8]; corrected for cell number): apparent decrease in overall mature collagen synthesis | expression of P1CP in the culture media (mature collagen synthesis) (cardiac fibroblasts [8]; not normalized): increased expression of P1CP
